# Experimental data: the supplement of paper PMC12042874
# ± gives the uncertainty stated by the source.
# Test: amyloid nucleation score (Sup35N fusion, yeast selection) (log enrichment); library NNK1; higher = more nucleation; inactive = no reads after selection
# In short: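 Plasmid inserts were Illumina-sequenced at input and output from psi-negative yeast expressing Sup35N fused to peptides of 20 random codons. The yeast were induced with 100 μM copper sulfate for 24 hours and grown 7 days at 30°C on medium lacking adenine and uracil, and sequences with under 100 input reads were excluded. Nucleation score is the DiMSum log enrichment of output over input reads, centred on the mode score of non-aggregating sequences.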
row,Substance,amyloid nucleation score
1,RFYMCRLEGVPFES,0.58 ± 0.79
2,RGAASKDLLMV,0.082 ± 0.86
3,RGEKHVRVYRVMSV,-0.192 ± 0.49
4,RGGSYMFRLYCVFLYGCYFG,-0.577 ± 0.72
5,RGIYWVSFVLSGRIIGWMVG,0.275 ± 0.8
6,RGLLYS,0.768 ± 0.75
7,RGLTYVRVVGLARIGSACSV,0.335 ± 0.53
8,RGMGVAWAYLSSNTRPRRLN,0.792 ± 0.76
9,RGMIFLHQASCLHRDN,-0.836 ± 0.61
10,RGNLESFVLGNIRVTNP,1.01 ± 0.18
11,RGSYHRLWCI,0.114 ± 0.72
12,RGTDLSSYTSFVC,0.28 ± 0.41
13,RHFEDYMELSSLSLGMGEG,-0.394 ± 0.63
14,RHIFIRGIVYCCVSTFRFPS,-0.218 ± 0.27
15,RHMRSHENVGKFWRLSCFVN,-0.36 ± 0.51
16,RHVAYRSLRFSGCTP,0.416 ± 0.76
17,RHVSPFNSS,-0.222 ± 0.31
18,RIASSRVFFAFFRSLYMSGW,0.995 ± 0.47
19,RIDTFTWSCKCLPPSSIWLL,0.009 ± 0.76
20,RIDYWVIPGAWNSTCWRYTT,1.49 ± 0.45
21,RIFNIYNGVQRRNFYYFYSC,7.532 ± 0.05
22,RIGFPVRYEEFALRFIYILE,-0.261 ± 0.72
23,RIKFDTKMRTVQCSCGSLHS,2.78 ± 0.18
24,RILYMYWVFMVLFMTPRCLD,-0.099 ± 0.48
25,RITHRFVFTRAFTNGRALLR,0.405 ± 0.27

row,Substance,amyloid nucleation score
1,RIVYLCSSGCVRKCWLLCSG,2.29 ± 0.24
2,RIWLTFTSFIYDNVDRILVQ,-0.2 ± 0.67
3,RIWPQIVCDIDIRP,-0.444 ± 0.52
4,RKASYLSAVNMQFRESFLFW,-0.209 ± 0.28
5,RKFMDYSLKFSWRGVIPVMR,-1.83 ± 1.8
6,RKFRGLVKLL,1.28 ± 0.85
7,RKLKSCSTNGHIG,6.02 ± 0.063
8,RKNAFDFDAS,-0.099 ± 0.42
9,RKNFMGSEFVLDNILCLFLL,7.583 ± 0.055
10,RKSFLTLVNFYYLFRC,3.1 ± 0.12
11,RKYKRTVMDMKCYWQGVWSV,0.136 ± 0.5
12,RLDISSYSLFGINQVWA,2.63 ± 0.17
13,RLGAGCSPSLVLS,0.197 ± 0.56
14,RLKGSPHVLL,-1.69 ± 1.2
15,RLLVFQSCKFVRGTSLCLVT,3.66 ± 0.069
16,RLRDIG,-0.684 ± 1.2
17,RLSGGLADHNIFNFRIT,0.805 ± 0.76
18,RLSHRM,-0.994 ± 0.54
19,RLSRKISSWLTRYIIAWSWS,-0.713 ± 0.61
20,RLSSSIYAFSDIHCGMSEAQ,0.168 ± 0.26
21,RLTDRHLLWIIMQELNGFLV,-1.09 ± 2.7
22,RLWIVPLGLWCLRHRVCCRP,-0.246 ± 0.65
23,RMPNGTWSIGRHLVD,0.384 ± 0.79
24,RMQVKDLVDQVKTTFKCTHT,0.303 ± 0.37
25,RNFLIVLPSVYRGPFI,5.36 ± 0.064

row,Substance,amyloid nucleation score
1,RNFWF,0.078 ± 0.34
2,RNIPGFVETVINGSCGALLT,0.636 ± 0.52
3,RNKSGSGYKLFVSGELAQQM,inactive
4,RNLRY,0.184 ± 1.1
5,RNMLELSFWCYEMKNSSSWS,1.15 ± 0.24
6,RNQVRDSRVISGPNFSSMKK,-0.51 ± 0.71
7,RNRNCFSRYCRLIV,-1.45 ± 0.56
8,RNRYTFSIRLVQTDYCFLGM,1.63 ± 0.19
9,RNSDSNTVGNRSFWLLGIL,0.389 ± 0.3
10,RNSRICSFS,0.59 ± 0.35
11,RNTFHFNNMALPVLQT,-1.23 ± 0.77
12,RNYPTRPYRGVINHLGFCRV,-1.06 ± 0.57
13,RPFRLYECCCDGELFLN,-0.997 ± 0.51
14,RPGGGAACAVRGRLPVCQLG,-1.13 ± 0.96
15,RPGMEADLLVNLPLF,0.958 ± 0.72
16,RPYGPYALLWSISIYAWELL,0.508 ± 0.61
17,RQDGYPRCIVRVILLECSLI,-0.321 ± 0.66
18,RQLVIIFNDDLGDVGNGNFC,7.61 ± 0.043
19,RQRTIFWLMFWELAMFNCHM,-0.423 ± 0.74
20,RQSRLAYGCVLVYVLTADFG,-0.025 ± 0.29
21,RRAPLNLTREVSSVWEWRII,-0.631 ± 0.68
22,RRGFVAHLFLVLTVVCNLNS,7.2 ± 0.071
23,RRGGGGSSIFLMHTAWILLE,1.03 ± 0.34
24,RRGLCGNAKAIIRGLAQGWD,-1 ± 1.2
25,RRHTLSFVTGFCVIGFYGGD,4.48 ± 0.063

row,Substance,amyloid nucleation score
1,RRMGKSFKAYTDGVQRKILS,0.593 ± 0.68
2,RRPASFLFFTYPILLQVFTF,-1.22 ± 2.1
3,RRRCSSVGRDLMAGSDKRYE,0.663 ± 0.24
4,RRRPGPLPRCAF,1.96 ± 0.18
5,RRSMGRGVLVKGRGSCREYV,0.251 ± 0.81
6,RRVGLVASDTGRGEWWTRSM,-0.015 ± 0.55
7,RRVGVYDGLRIFS,0.086 ± 0.93
8,RRVGWLRTRSG,0.731 ± 0.41
9,RRVNNKLRSTSGSTLTCCTY,0.216 ± 1.4
10,RRWGLFDIFKMPKELNMLHW,0.915 ± 1.1
11,RRWRTFLMRCKRNDTSKIRR,-1.36 ± 1.2
12,RSCSNRIIKCNLSHVMFY,4.45 ± 0.052
13,RSDISASHRSVGLLNSHRTD,-0.58 ± 1.5
14,RSFAYSLSQGYFANMNAKVR,inactive
15,RSLFRECEKIVDRHSMSNFH,0.445 ± 0.4
16,RSLLLALFAICYVCGGYEWV,1.24 ± 0.85
17,RSMRDLDPTMVFGSVNSLGW,0.166 ± 0.63
18,RSMYVSRRPIVPPLYIGFWE,0.166 ± 0.48
19,RSRIYCGFNRPTCEGFSRLS,2.63 ± 0.11
20,RSRPVPIVKDRSISNSRESR,-0.999 ± 2.4
21,RSSCL,-2.09 ± 2.4
22,RSSKYVNHASQKNAHLRGCS,0.641 ± 0.7
23,RSSNNIPGGYWEPYGQHHFH,2.44 ± 0.13
24,RSTYVCKIRVRMIYVDVKCS,0.596 ± 0.46
25,RSVSLKWQSRKHWLLTLTLA,0.931 ± 0.32

row,Substance,amyloid nucleation score
1,RSYGGLIKFNHVSDTL,-0.429 ± 0.93
2,RTCAWVGQHATSLWPFNRGQ,0.493 ± 0.77
3,RTCSKHYIWYKALIGFALGN,-0.27 ± 0.33
4,RTEGVET,-0.251 ± 0.58
5,RTELPHFFRVFAHRFACSGD,1.31 ± 0.93
6,RTILISAGAKCVNLMMLDSV,1.6 ± 0.29
7,RTMHVRFDIRKVALKIFKFY,1.3 ± 0.4
8,RTPHVERGTGIGLEISSTEV,0.041 ± 0.97
9,RTRLFYFGPDNNRVRRRGCS,1.13 ± 0.71
10,RTSRHVVVRREMRDRT,0.202 ± 0.21
11,RTVVQKKPVRCNMICNYWVF,4.82 ± 0.064
12,RVCKYGCAKT,0.566 ± 0.34
13,RVDGVKIRGYNWHLLMITCI,0.083 ± 0.6
14,RVETYRSYGAIIEVNRPVYM,0.625 ± 0.6
15,RVGILRMYSMFQFFKSLQWI,-0.372 ± 0.86
16,RVGWMLNGAGALWFFRYKLN,-0.256 ± 0.7
17,RVIPAAVISHYVK,-0.143 ± 1.7
18,RVLATKRRLQKRLHESVLLA,0.34 ± 1.1
19,RVLRVFLGDTLFYCQSGSGL,1.84 ± 0.22
20,RVLSVIVNILIARFT,-0.028 ± 0.25
21,RVMFACF,0.15 ± 0.37
22,RVNIV,-0.624 ± 0.48
23,RVNMWRYI,0.295 ± 0.4
24,RVNYDVLVHLMPGLWVRTRL,0.372 ± 1.4
25,RVQFRKSTVSISYQNGFCTQ,2.73 ± 0.086

row,Substance,amyloid nucleation score
1,RVSKFPKSFNVSFKADNKIH,4.02 ± 0.06
2,RVSPFISNTFVVNSKETHGV,4.56 ± 0.056
3,RVYILFRHLVYSGGKFSVFI,inactive
4,RVYISMM,-1.41 ± 1.7
5,RVYLFNYICGGLDFFLRPTV,5.37 ± 0.081
6,RWCLSTRKFSWR,0.305 ± 0.42
7,RWFDYDESESVKSVHLNLVR,-1.37 ± 0.89
8,RWGLRQIMVVENFIHRWVCP,1.04 ± 0.79
9,RWPTRNFQGTVRYAR,-0.62 ± 0.7
10,RWSETR,0.998 ± 0.48
11,RWSFSSTY,3.69 ± 0.085
12,RWSWTVIMSMEADGCFRLHL,1.68 ± 0.28
13,RYAISYNLRVVGLISMYRNT,0.655 ± 0.29
14,RYDAWCYGWGVMMLHKFIG,-0.012 ± 0.64
15,RYHRTGCLGILWLSLSHRLS,0.418 ± 0.59
16,RYHRWFRVRSSENRWGIC,-0.51 ± 0.93
17,RYHTVYGIYGRLWGWFMKFD,-0.159 ± 0.33
18,RYIRLRMFLCLFYLMCLPRR,-1.25 ± 0.75
19,RYIVVG,0.106 ± 0.24
20,RYPSLLWIFDFNYLLYLRFQ,-0.451 ± 0.25
21,RYSLYQSEWVGKSMRDLTAR,1.03 ± 0.62
22,RYTFVITVYKIDDSSEMSWV,0.82 ± 0.25
23,RYTRSGLIDMFTNSSTDAHS,0.115 ± 0.43
24,RYWCCSPVRSLVHGRHCEV,1.52 ± 0.24
25,RYYGLFVYVARIYSALRSCK,-0.104 ± 0.33

row,Substance,amyloid nucleation score
1,SAAPRFCSYSSFFALSNLSI,0.615 ± 0.3
2,SAASPFFFSDCGWPSGILNY,1.26 ± 0.67
3,SAHSDPQMRKNSLTYGNDLI,-0.116 ± 0.42
4,SAPENSWGAWLDYGELEVGW,0.016 ± 0.35
5,SASSMVFNTTSPT,-0.404 ± 0.51
6,SASVAHLCDYVVENI,0.018 ± 0.54
7,SASWGRYGERLHCDQRYFII,inactive
8,SAVGYISLLYNSWAKYTICN,-0.562 ± 0.69
9,SCAWRYNICTLISVRWVCK,0.756 ± 0.34
10,SCCWVSIDSNQCHRACTVRT,-0.136 ± 0.56
11,SCEFLCVRHVLCHHLSLNVS,0.296 ± 1.4
12,SCGNLIVRPLVGVCHAWNEE,0.489 ± 0.46
13,SCGWDLVCGMMAVHSSGIVL,0.975 ± 0.42
14,SCHYDQPDQKLLASQSLL,-1.02 ± 0.68
15,SCIKNSCGINYLVGQATFHN,6.499 ± 0.049
16,SCIYLNGSPVDEDGKYVHDF,inactive
17,SCKFMIYNSVGAGSLGHVNR,4.69 ± 0.094
18,SCLLTMSLE,0.11 ± 0.43
19,SCYIDYNFYSWQGSWYCFKI,inactive
